{"source": "paper PMC9232636", "about": "“Insights into the mechanism of action of the arbitrium communication system in SPbeta phages” (Nature Communications, 2022)", "molecules": {"B1": {"name": "AimR^SPβ-I: AimR^SPβ receptor without tags (protein)", "chain": "MELIRIAMKKDLENDNSLMNKWATVAGLKNPNPLYDFLNHDGKTFNEFSSIVNIVKSQYPDREYELMKDYCLNLDVKTKAARSALEYADANMFFEIEDVLIDSMISCSNMKSKEYGKVYKIHRELSNSVITEFEAVKRLGKLNIKTPEMNSFSRLLLLYHYLSTGNFSPMAQLIKQIDLSEISENMYIRNTYQTRVHVLMSNIKLNENSLEECREYSKKALESTNILRFQVFSYLTIGNSLLFSNYELAQENFLKGLSISVQNENYNMIFQQALCFLNNVWRKENKWINFESDSIMDLQEQAHCFINFNENSKAKEVLDKLDLLVHNDNELAMHYYLKGRLEQNKACFYSSIEYFKKSNDKFLIRLPLLELQKMGENQKLLELLLL"}, "B2": {"name": "aimX-boxSPb BLI probe (DNA_SPb_b) (dsDNA)", "DNA 1": "GTTGATCACTTAAATATTAGGTTTTAATAACATCTAGTGATGGCC", "DNA 2": "GGCCATCACTAGATGTTATTAAAACCTAATATTTAAGTGATCAAC"}, "B3": {"name": "aimX-boxKat BLI probe (DNA_Kat_b) (dsDNA)", "DNA 1": "B2 DNA 1 with G20A, A26T", "DNA 2": "B2 DNA 2 with T20A, C26T"}, "B4": {"name": "aimX-boxPhi EMSA probe (DNA_Phi3T) (dsDNA)", "DNA 1": "GTTGATGTTCCAGAAATTCAAAAATCAAAAAATAAGAACATGGCC", "DNA 2": "GGCCATGTTCTTATTTTTTGATTTTTGAATTTCTGGAACATCAAC"}, "B5": {"name": "AimP^SPβ, the SPβ AimP peptide GMPRGA (peptide)", "peptide": "GMPRGA"}}, "key": {"[1]": {"molecular_target": "AimR^Kat-N273A (Katmira phage (resident phage of Bacillus subtilis subsp. KATMIRA1933))", "assay": "ITC; Nano ITC Low Volume; protein 10 μM, peptide 50 μM; 25 mM Tris-HCl pH 8, 250 mM NaCl; 25 °C; biphasic thermograms fitted to a two-binding site model, one site per monomer of the AimR dimer"}, "[2]": {"molecular_target": "AimR from Katmira phage (AimR^Kat) (Katmira phage (resident phage of Bacillus subtilis subsp. KATMIRA1933))", "assay": "ITC; Nano ITC Low Volume; protein 10 μM, peptide 50 μM; 25 mM Tris-HCl pH 8, 250 mM NaCl; 25 °C; biphasic thermograms fitted to a two-binding site model, one site per monomer of the AimR dimer"}, "[3]": {"molecular_target": "AimR from Katmira phage (AimR^Kat) (Katmira phage (resident phage of Bacillus subtilis subsp. KATMIRA1933))", "assay": "thermal shift assay (ThermoFluor); 20 μM protein, 5× Sypro Orange, 0.5 μM peptide as printed; 20 mM Tris pH 8, 250 mM NaCl; 25 to 85 °C"}, "[4]": {"molecular_target": "AimR from Katmira phage (AimR^Kat) (Katmira phage (resident phage of Bacillus subtilis subsp. KATMIRA1933))", "assay": "SEC-MALS; AimR^Kat with 1 mM AimP^Kat peptide in the injected sample and 1 μM peptide in the running buffer; 5 mg/ml, KW-803 (Shodex); 25 mM Tris pH 8, 250 mM NaCl"}, "[5]": {"molecular_target": "AimR from Katmira phage (AimR^Kat) (Katmira phage (resident phage of Bacillus subtilis subsp. KATMIRA1933))", "assay": "SEC-MALS; apo AimR^Kat, 50 μl at 5 mg/ml on KW-803 (Shodex); 25 mM Tris pH 8, 250 mM NaCl"}, "[6]": {"molecular_target": "AimRKat (Bacillus phage Katmira (prophage of Bacillus subtilis KATMIRA1933)) (UniProt A0A7G5CHT1)", "assay": "BLI", "conditions": "BLI: PBS (0.01% Tween, 0.1% BSA for hydration, baseline and dissociation), AimR 0.015-2.5 uM, temperature not stated; EMSA: 50 mM Tris pH 8, 250 mM NaCl, room …"}, "aimX-box^SPβ": {"molecular_target": "aimX-box^SPβ", "assay": "Biolayer interferometry, AimR binding to aimX operator", "parameters": "species or system phage SPβ", "conditions": "BLI", "experimental": "(§1) The Binding affinity (KD), association (kon) and dissociation (koff) rate constants between AimRs and DNA were measured by biolayer interferometry (BLI) using the BLITz system (FortéBio). Biotinilated DNA probes (IDT) (Supplementary Table 3) were immobilised in Streptavidin biosensors (FortéBio) at 50 μg ml^−1. Biosensor hydration, baselines and dissociation analysis were carried out in phosphate buffer (PBS) supplemented with 0.01% tween and 0.1% BSA. Proteins were diluted in PBS. At least four different dilutions of AimR were used in a range between 0.015 and 2.5 μM. A blank using a chip without bounded DNA was used to subtract unspecific binding. Kinetic value calculations and data analysis were performed using BLItz Pro 1.2 software employing a 1:1 model to fit the data."}, "aimX-box^Kat": {"molecular_target": "aimX-box^Kat", "assay": "Biolayer interferometry, AimR binding to aimX operator", "parameters": "species or system Katmira phage", "conditions": "BLI, 1:1 model", "experimental": "as §1"}, "AimR^SPβ": {"tested_on": "AimR^SPβ", "assay": "Thermal shift assay of AimR^SPβ with and without C-terminal His-tag", "type": "physicochemical, phage SPβ", "experimental": "The thermal shift assay was conducted in a 7500 Fast Real time PCR System (Applied Biosystems) as previously described. Briefly, samples of 20 μl buffer (20 mM Tris pH 8 and 250 mM NaCl) containing 5× Sypro Orange (Sigma-Aldrich) and 20 μM of protein were loaded in 96-well PCR plates. To calculate the Tm in the presence of the peptide, 0.5 μM of GMPRGA or GIVRGA peptide was added to the mixture. Samples were heated from 25 to 85 °C in steps of one degree. Fluorescent intensity was plotted versus temperature and integrated with GraphPad Prism software using a Boltzmann model to calculate melting temperatures."}, "aimX-box^Phi": {"molecular_target": "aimX-box^Phi", "assay": "Biolayer interferometry, AimR binding to aimX operator", "parameters": "species or system phage phi3T; key to kon / koff: NBD: not binding detected in the experimental conditions used. KD > 1 × 10^−6 M", "conditions": "BLI, 1:1 model", "experimental": "as §1"}, "AimRSPb-I (untagged) [7]": {"molecular_target": "T1, AimRSPb-I (untagged) (Bacillus phage SPbeta, UniProt O64094 1-386)", "T1 sequence": "B1 chain", "assay": "BLI; BLI: PBS (0.01% Tween, 0.1% BSA for hydration, baseline and dissociation), AimR 0.015-2.5 uM, temperature not stated; EMSA: 50 mM Tris pH 8, 250 mM NaCl, room temperature 10 min, 0.5 uM peptide, gel at 4 C", "conditions": "protein: recombinant; tags: N-terminal His tag removed; chain copies: 2"}, "[8]": {"molecular_target": "T2, AimRSPb-II (C-terminal His tag) (Bacillus phage SPbeta (B. subtilis 168 …, UniProt O64094 1-386))", "T2 sequence": "B1 chain", "assay": "BLI; BLI: PBS (0.01% Tween, 0.1% BSA for hydration, baseline and dissociation), AimR 0.015-2.5 uM, temperature not stated; EMSA: 50 mM Tris pH 8, 250 mM NaCl, room temperature 10 min, 0.5 uM peptide, gel at 4 C", "conditions": "protein: recombinant; chain copies: 2"}, "AimRSPb-I (untagged) [9]": {"molecular_target": "T1, AimRSPb-I (untagged)", "assay": "EMSA; BLI: PBS (0.01% Tween, 0.1% BSA for hydration, baseline and dissociation), AimR 0.015-2.5 uM, temperature not stated; EMSA: 50 mM Tris pH 8, 250 mM NaCl, room temperature 10 min, 0.5 uM peptide, gel at 4 C", "conditions": "protein: recombinant; tags: N-terminal His tag removed; chain copies: 2"}, "[10]": {"molecular_target": "T3, AimR from B. subtilis phage SPβ (AimR^SPβ) (Bacillus subtilis phage SPβ) (UniProt O64094)", "T3 sequence": "B1 chain"}, "[11]": {"molecular_target": "AimR^Kat-N273A (Katmira phage (resident phage of Bacillus subtilis subsp. KATMIRA1933))", "assay": "ITC; Nano ITC Low Volume; protein 10 μM, peptide 50 μM; 25 mM Tris-HCl pH 8, 250 mM NaCl; 25 °C; biphasic thermograms fitted to a two-binding site model, one site per monomer of the AimR dimer", "remark": "listed apart in the source"}}, "note": "Residue numbers refer to the chain shown, from its start. Read-outs that look alike come from different tables or passages of the source."}
{"molecule": "AimP^Kat, active (mature) Katmira AimP peptide GIVRGA", "values": [{"measurement": "KD1 (monomer 1, two-binding site model)", "setting": "[1]", "value": 194, "unit": "nM"}, {"measurement": "KD2 (monomer 2, two-binding site model)", "setting": "[1]", "value": 356, "unit": "nM"}, {"measurement": "KD1 (monomer 1, two-binding site model)", "setting": "[2]", "value": 4.1, "unit": "nM"}, {"measurement": "KD2 (monomer 2, two-binding site model)", "setting": "[2]", "value": 5.7, "unit": "nM"}, {"measurement": "increment of the melting temperature (Tm)", "setting": "[3]", "value": 20, "unit": "°C"}]}
{"molecule": "AimR from Katmira phage (AimR^Kat) (receptor)", "values": [{"measurement": "stoichiometry N", "setting": "[4]", "value": 2}, {"measurement": "stoichiometry N", "setting": "[5]", "value": 2}]}
{"molecule": "GGGAAAGTTCCAGAAATTCAAAAATCAAAAAATAAGAACATGGGG (double strand) [aimX-boxPhi BLI probe (DNA_Phi3T_b)]", "values": [{"measurement": "Kd", "setting": "[6]", "value": "> 1000", "unit": "nM"}]}
{"molecule": "GTTGATCACTTAAATATTAAGTTTTTATAACATCTAGTGATGGCC (double strand) [aimX-boxKat BLI probe (DNA_Kat_b)]", "values": [{"measurement": "Kd", "setting": "[6]", "value": 23.1, "unit": "nM"}]}
{"molecule": "GTTGATCACTTAAATATTAGGTTTTAATAACATCTAGTGATGGCC (double strand) [aimX-boxSPb BLI probe (DNA_SPb_b)]", "values": [{"measurement": "Kd", "setting": "[6]", "value": 21.4, "unit": "nM"}]}
{"molecule": "B1", "values": [{"measurement": "Kd", "setting": "aimX-box^SPβ; BLITz, streptavidin biosensor with biotinylated DNA, PBS, 1:1 model, mean of five measurements, read-out: KD", "value": 19.3, "unit": "nM"}, {"measurement": "koff", "setting": "aimX-box^SPβ; PBS + 0.01% tween and 0.1% BSA, 1:1 model", "value": "0.0726 ± 0.00229", "unit": "s⁻¹"}, {"measurement": "kon", "setting": "aimX-box^SPβ; PBS, 1:1 model", "value": "3.75e+06 ± 324000", "unit": "M⁻¹ s⁻¹"}, {"measurement": "Kd", "setting": "aimX-box^SPβ; peer review file, stated jointly for aimX-box^SPβ and aimX-box^Kat, read-out: affinity (KD)", "value": 19, "unit": "nM"}, {"measurement": "Kd", "setting": "aimX-box^Kat; BLITz, streptavidin biosensor with biotinylated DNA, PBS, mean of five measurements", "value": 19.6, "unit": "nM"}, {"measurement": "koff", "setting": "aimX-box^Kat; PBS + 0.01% tween and 0.1% BSA", "value": "0.078 ± 0.0025", "unit": "s⁻¹"}, {"measurement": "kon", "setting": "aimX-box^Kat; PBS", "value": "3.98e+06 ± 427000", "unit": "M⁻¹ s⁻¹"}, {"measurement": "Tm", "setting": "AimR^SPβ; 20 mM Tris pH 8, 250 mM NaCl, 20 μM protein, no peptide", "value": 53.6, "unit": "°C"}, {"measurement": "Tm", "setting": "AimR^SPβ; Supplementary Fig. 5b, in °C (unit assumed)", "value": "53.6 ± 0.7"}, {"measurement": "Kd", "setting": "aimX-box^Phi; BLITz, PBS, AimR 0.015-2.5 μM", "value": "> 1000", "unit": "nM"}, {"measurement": "koff", "setting": "aimX-box^Phi; PBS + 0.01% tween and 0.1% BSA", "value": "NBD^d"}, {"measurement": "kon", "setting": "aimX-box^Phi; PBS", "value": "NBD^d"}]}
{"molecule": "B2", "values": [{"measurement": "Kd", "setting": "AimRSPb-I (untagged) [7]", "value": 19.3, "unit": "nM"}, {"measurement": "Kd", "setting": "[8]", "value": 116, "unit": "nM"}]}
{"molecule": "B3", "values": [{"measurement": "Kd", "setting": "AimRSPb-I (untagged) [7]", "value": 19.6, "unit": "nM"}, {"measurement": "Kd", "setting": "[8]", "value": 116, "unit": "nM"}]}
{"molecule": "B4", "values": [{"measurement": "binding result", "setting": "AimRSPb-I (untagged) [9]", "value": "no binding"}]}
{"molecule": "B5", "values": [{"measurement": "phage titre (PFU/ml) after mitomycin C induction of the SPβ ΔaimR prophage complemented with AimR^SPβ, 5 μM peptide added (times (reduction of the titre))", "setting": "[10]", "value": 10}, {"measurement": "KD1 (monomer 1, two-binding site model)", "setting": "[11]", "value": 1.3, "unit": "µM"}, {"measurement": "KD2 (monomer 2, two-binding site model)", "setting": "[11]", "value": 1.6, "unit": "µM"}]}
